According to the supplement of paper PMC9112550, “Optimization of the antimicrobial peptide Bac7 by deep mutational scanning” (BMC Biology, 2022):

System: Escherichia coli TOP10
Assay: shrunken log2 fold change of peptide-encoding DNA abundance (4.5 h post-induction vs induction); higher = less antimicrobial activity (less host growth inhibition)
Conditions: time post-induction: 4.5 h; library: site-saturation at positions 5, 18, 19, 20
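Note: peptides expressed intracellularly from a pBAD plasmid library in pooled LB shake-flask culture, induced with 0.3% L-arabinose, DNA abundance read by NGS, three biological replicates, DESeq2 with apeglm shrinkage.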

Sequence	shrunken log2 fold change
RRIRIRPPRLPRPRPRPACQPRP	0.0224
RRIRMRPPRLPRPRPRPMFWPRP	0.0479
RRIRQRPPRLPRPRPRPMQQPRP	-0.0642
RRIRERPPRLPRPRPRPHYMPRP	-0.0919
RRIRHRPPRLPRPRPRPPKTPRP	0.177
RRIRRRPPRLPRPRPRPYRWPRP	-0.356
RRIRKRPPRLPRPRPRPGGQPRP	0.108
RRIRVRPPRLPRPRPRPITRPRP	-0.0188
RRIRVRPPRLPRPRPRPIQDPRP	-0.134
RRIRTRPPRLPRPRPRPALHPRP	-0.19
RRIRNRPPRLPRPRPRPDDKPRP	-0.0189
RRIRNRPPRLPRPRPRPICSPRP	-0.0669
RRIRWRPPRLPRPRPRPKGEPRP	0.74
RRIRKRPPRLPRPRPRPDWKPRP	-0.0149
RRIRKRPPRLPRPRPRPMTNPRP	0.184
RRIRIRPPRLPRPRPRPNDAPRP	-0.182
RRIRLRPPRLPRPRPRPWSMPRP	0.202
RRIRERPPRLPRPRPRPDSCPRP	-0.149
RRIRWRPPRLPRPRPRPNFIPRP	-0.174
RRIRGRPPRLPRPRPRPDKWPRP	0.243
RRIRGRPPRLPRPRPRPHKFPRP	0.151
RRIRGRPPRLPRPRPRPAWGPRP	0.268
RRIRCRPPRLPRPRPRPESSPRP	-0.16
RRIRTRPPRLPRPRPRPVKMPRP	-0.0502
RRIRHRPPRLPRPRPRPWAEPRP	-0.119

Sequence	shrunken log2 fold change
RRIRYRPPRLPRPRPRPWRTPRP	-0.298
RRIRQRPPRLPRPRPRPSWPPRP	-0.0496
RRIRMRPPRLPRPRPRPVAVPRP	0.55
RRIRTRPPRLPRPRPRPVATPRP	0.299
RRIRDRPPRLPRPRPRPRQDPRP	0.367
RRIRDRPPRLPRPRPRPDPGPRP	0.506
RRIRERPPRLPRPRPRPEFTPRP	0.0663
RRIRNRPPRLPRPRPRPDCQPRP	0.0461
RRIRGRPPRLPRPRPRPQNTPRP	0.0999
RRIRTRPPRLPRPRPRPHYDPRP	-0.302
RRIRHRPPRLPRPRPRPTFQPRP	-0.067
RRIRPRPPRLPRPRPRPKWNPRP	-0.0477
RRIRWRPPRLPRPRPRPYTYPRP	-0.329
RRIRRRPPRLPRPRPRPMDIPRP	-0.168
RRIRLRPPRLPRPRPRPQHWPRP	-0.044
RRIRVRPPRLPRPRPRPLLAPRP	0.343
RRIRGRPPRLPRPRPRPTMCPRP	0.805
RRIRCRPPRLPRPRPRPPDMPRP	-0.000808
RRIRFRPPRLPRPRPRPCADPRP	-0.102
RRIRNRPPRLPRPRPRPGMRPRP	0.504
RRIRRRPPRLPRPRPRPGECPRP	0.0146
RRIRPRPPRLPRPRPRPPRWPRP	0.495
RRIRVRPPRLPRPRPRPNKEPRP	0.0955
RRIRPRPPRLPRPRPRPDMEPRP	-0.0437
RRIRLRPPRLPRPRPRPTIHPRP	-0.3

Sequence	shrunken log2 fold change
RRIRMRPPRLPRPRPRPCPWPRP	0.0763
RRIRGRPPRLPRPRPRPSGNPRP	0.18
RRIRNRPPRLPRPRPRPRMKPRP	-0.0273
RRIRRRPPRLPRPRPRPALYPRP	0.225
RRIRYRPPRLPRPRPRPTHIPRP	-1.04
RRIRLRPPRLPRPRPRPGFTPRP	-0.191
RRIRMRPPRLPRPRPRPWFHPRP	-0.121
RRIRSRPPRLPRPRPRPVLCPRP	-0.00306
RRIRNRPPRLPRPRPRPGIAPRP	0.0989
RRIRPRPPRLPRPRPRPPIMPRP	-0.0982
RRIRCRPPRLPRPRPRPKHFPRP	-0.209
RRIRTRPPRLPRPRPRPPPFPRP	0.452
RRIRHRPPRLPRPRPRPYIEPRP	-0.68
RRIRVRPPRLPRPRPRPLDGPRP	-0.267
RRIRHRPPRLPRPRPRPSLCPRP	-0.0468
RRIRKRPPRLPRPRPRPDRFPRP	-0.0614
RRIRSRPPRLPRPRPRPRREPRP	0.416
RRIRIRPPRLPRPRPRPRFHPRP	-0.42
RRIRPRPPRLPRPRPRPHWFPRP	0.0501
RRIRHRPPRLPRPRPRPKELPRP	-0.00676
RRIRVRPPRLPRPRPRPIMPPRP	-0.535
RRIRCRPPRLPRPRPRPIMCPRP	0.0272
RRIRPRPPRLPRPRPRPQLIPRP	-0.108
RRIRIRPPRLPRPRPRPKHAPRP	-0.126
RRIRTRPPRLPRPRPRPTQLPRP	-0.319

Sequence	shrunken log2 fold change
RRIRERPPRLPRPRPRPVVCPRP	0.0991
RRIRERPPRLPRPRPRPALVPRP	0.193
RRIRWRPPRLPRPRPRPRWDPRP	0.0641
RRIRVRPPRLPRPRPRPVFPPRP	0.038
RRIRHRPPRLPRPRPRPPCNPRP	-0.221
RRIRSRPPRLPRPRPRPAADPRP	0.252
RRIRGRPPRLPRPRPRPMKPPRP	0.276
RRIRTRPPRLPRPRPRPMKPPRP	-0.0805
RRIRMRPPRLPRPRPRPNNSPRP	-0.327
RRIRKRPPRLPRPRPRPYVEPRP	-1.51
RRIRHRPPRLPRPRPRPDTQPRP	0.047
RRIRMRPPRLPRPRPRPQGYPRP	0.0234
RRIRGRPPRLPRPRPRPKVWPRP	0.665
RRIRSRPPRLPRPRPRPMKHPRP	-0.212
RRIRNRPPRLPRPRPRPCQHPRP	-0.0585
RRIRDRPPRLPRPRPRPYSQPRP	-0.0305
RRIRGRPPRLPRPRPRPAHYPRP	0.447
RRIRTRPPRLPRPRPRPDCDPRP	0.209
RRIRARPPRLPRPRPRPEVTPRP	1.28
RRIRNRPPRLPRPRPRPHLGPRP	-0.317
RRIRHRPPRLPRPRPRPSMNPRP	-0.253
RRIRNRPPRLPRPRPRPCSIPRP	-0.000921
RRIRDRPPRLPRPRPRPKNDPRP	-0.103
RRIRMRPPRLPRPRPRPPDWPRP	1.7
RRIRVRPPRLPRPRPRPFDLPRP	-0.24

Sequence	shrunken log2 fold change
RRIRHRPPRLPRPRPRPQMWPRP	2.46e-05
RRIRKRPPRLPRPRPRPGSWPRP	0.571
RRIRHRPPRLPRPRPRPEKNPRP	-0.0893
RRIRKRPPRLPRPRPRPQFCPRP	0.0712
RRIRARPPRLPRPRPRPWVQPRP	-0.0652
RRIRPRPPRLPRPRPRPGEDPRP	0.461
RRIRGRPPRLPRPRPRPATFPRP	0.326
RRIRKRPPRLPRPRPRPIEHPRP	0.332
RRIRARPPRLPRPRPRPHWSPRP	-0.0356
RRIRFRPPRLPRPRPRPDIVPRP	-0.0567
RRIRKRPPRLPRPRPRPAQLPRP	0.0282
RRIRKRPPRLPRPRPRPHVKPRP	-0.258
RRIRYRPPRLPRPRPRPNDNPRP	-0.635
RRIRFRPPRLPRPRPRPFVCPRP	-0.398
RRIRSRPPRLPRPRPRPLHPPRP	0.578
RRIRYRPPRLPRPRPRPFNVPRP	0.0019
RRIRSRPPRLPRPRPRPWLMPRP	-0.156
RRIRGRPPRLPRPRPRPMTVPRP	0.0506
RRIRLRPPRLPRPRPRPGNPPRP	0.0749
RRIRKRPPRLPRPRPRPCDGPRP	0.00408
RRIRQRPPRLPRPRPRPEWHPRP	0.33
RRIRLRPPRLPRPRPRPSFQPRP	-0.514
RRIRWRPPRLPRPRPRPQARPRP	0.19
RRIRARPPRLPRPRPRPRPVPRP	0.771
RRIRFRPPRLPRPRPRPKNLPRP	-0.225
